Experimental data reported in PMC9272835.

Molecular target: trastuzumab
Assay: BLI; trastuzumab (5 µg/mL) captured on anti-human IgG Fc (AHC) biosensors; serial dilutions of the masks or HER2 in solution; DPBS, 0.1% BSA, 0.02% Tween 20; global fit to a 1:1 model

Kd: 0.192 nM | half-life of dissociation: 3.3 h | koff: 5.76e-05 s⁻¹
B1: dAb (VHH)
VHH: EVQLVESGGGLVQAGDSLTLSCAASGRTFSSVAMGWFRQAPGKERKFVANISWNGDSTYYTDSVKGRFTISRDNAKNTVYLQMSSLKPEDTAVYYCAADVRWTGDGHRADYWGQGTQVTVSS
